Test results as given in US6632621B1, “G protein-coupled receptor-like receptors and modulators thereof” (priority 1999, dated 2003).
One block for each molecule: values may come before it. Where a SMILES comes first, the peptide text is derived from it. Where no end group is shown, it is not given here. [ ]: non-standard residue; d: D form. Tyr(3-I) = N[C@@H](Cc1ccc(O)c(I)c1)C(=O)O; Nle = CCCC[C@H](N)C(=O)O

Key:
CEGPCR19.2 = CEGPCR19.2 (Caenorhabditis elegans, UniProt H2KZY4); experiment: calcium mobilization assay (FLIPR), transiently transfected CHO cells, CEGPCR19.2; type: cell-based, C. elegans; settings: Table 13; peptides at 10 μM
CEGPCR19.2, sequence (H2KZY4 entry or part of it): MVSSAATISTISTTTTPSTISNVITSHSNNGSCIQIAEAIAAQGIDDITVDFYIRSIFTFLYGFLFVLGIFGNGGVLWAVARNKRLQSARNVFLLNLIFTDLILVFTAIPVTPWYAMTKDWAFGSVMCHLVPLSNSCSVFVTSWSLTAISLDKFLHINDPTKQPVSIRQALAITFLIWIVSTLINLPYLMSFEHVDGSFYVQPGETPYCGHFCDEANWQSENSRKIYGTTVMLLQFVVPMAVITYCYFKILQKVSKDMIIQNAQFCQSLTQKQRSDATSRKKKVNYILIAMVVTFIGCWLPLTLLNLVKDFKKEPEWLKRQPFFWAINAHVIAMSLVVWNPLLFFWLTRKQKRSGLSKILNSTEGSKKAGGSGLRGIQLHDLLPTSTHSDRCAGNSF
Method: Changes in intracellular calcium levels are another recognized indicator of […] receptor activity, and such assays can be employed to assay for modulators of GPCR-like receptor activity. For example, CHO cells stably transfected with a GPCR-like receptor expression construct are plated at a density of 4×10^4 cells/well in Packard black-walled 96-well plates specially designed to isolate fluorescent signals to individual wells. The cells are incubated for 60 minutes at 37° C. in modified Dulbecco's PBS (D-PBS), containing 36 mg/L pyruvate and 1 g/L glucose with the addition of 2.5 mM probenecid (Sigma Chemical Co.) and one of four calcium indicator dyes (Fluo3™ AM, Fluo4™ AM, Calcium Green™-1 AM, or Oregon Green™ 488 BAPTA-1 AM) at a concentration of 4 μM. Plates are washed once with modified D-PBS […] 1% fetal bovine serum and incubated for 10 minutes at 37° C. to remove residual dye from the cellular membrane. In addition, a series of washes with modified D-PBS is performed immediately prior to activation of the calcium response.
Calcium response is initiated by the addition of one or more candidate receptor agonist compounds, or a positive control such as a calcium ionophore A23187 (10 μM), or ATP (4 μM). Fluorescence is measured by Molecular Device's FLIPR with an argon laser, excitation at 488 nm. […] Basal fluorescence of cells was measured for 20 seconds prior to addition of agonist, ATP, or A23187, and was subtracted from the response signal. The calcium signal is measured for approximately 200 seconds, taking readings every two seconds. […]
This appears especially useful for the assessment of possible activation of orphan GPCRs (i.e., GPCRs having unknown functions and unknown signaling pathways). […] Because the GTPγS assay is known to poorly recognize GPCRs coupled to the Gq class of G-proteins, a Ca^+2 mobilization assay, based on a FLIPR readout, was used as well to evaluate putative Gq-couplcd orphan GPCRs transiently transfected into CHO cells. […] Without the temperature downshift, expression of functional receptor could not be detected. […]

CEGPCR5 = biological target: T1, CEGPCR5 (Caenorhabditis elegans, UniProt Q18179); experiment: [35S]GTPγS binding assay, CEGPCR5 expressed in CHO cells; type: biochemical, C. elegans; settings: for EC50: EC50 range
T1 sequence (Q18179 1-402): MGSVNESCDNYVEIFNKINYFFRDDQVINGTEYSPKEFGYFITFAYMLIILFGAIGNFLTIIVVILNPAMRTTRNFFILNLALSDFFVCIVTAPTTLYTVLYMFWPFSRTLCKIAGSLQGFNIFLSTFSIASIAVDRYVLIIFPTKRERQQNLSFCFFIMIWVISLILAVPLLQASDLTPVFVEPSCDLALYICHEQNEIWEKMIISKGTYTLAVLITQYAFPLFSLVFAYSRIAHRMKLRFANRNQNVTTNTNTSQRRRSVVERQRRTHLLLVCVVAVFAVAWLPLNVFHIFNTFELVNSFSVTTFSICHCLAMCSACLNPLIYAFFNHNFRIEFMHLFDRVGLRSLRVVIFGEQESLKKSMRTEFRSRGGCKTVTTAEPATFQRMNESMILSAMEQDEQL
Method: (§1) Recombinant pCR3.1 clones encoding invertebrate GPCR-like receptors were transformed into wild-type CHO-K1 cells and functional expression was achieved using a temperature-shift incubation protocol. The CHO-K1 cells were cultured at 37° C. in a humidified atmosphere of 5% CO2 in air in DMEM medium supplemented with 10% heat-inactivated fetal bovine serum (i.e., FBS), 10 μg/ml gentamicin, and 0.1 mM nonessential amino acids to give complete DMEM medium. Additionally, for incubations at temperatures lower than 37° C., the medium was fortified with 10 mM HEPES (pH 7.4). Cells were transfected with recombinant pCR3.1 clones containing GPCR-like receptor DNAs, using LipofectAMINE PLUS™, essentially according to the manufacturer's instructions. […] In separate plastic tubes, PLUS (20 μl/plate; Life Technologies) was added to 0.75 ml/plate of recombinant plasmid DNA in OptiMEM (5 μg/plate; Gibco/BRL—Life Technologies), mixed and incubated at room temperature for 15 minutes. Separately, LipofectAMINE (30 μl/plate) was mixed with 0.75 ml OptiMEM and added to the pre-complexed DNA/PLUS mixture and incubated at room temperature for 15 minutes. The culture medium was then replaced with serum-free transfection medium (DMEM, 5 ml/plate). The DNA-PLUS-LipofectAMINE complex was then added to the plates (1.5 ml/plate) and mixed gently into the medium, followed by a 3 hour incubation at 37° C. in 5% CO2. At this time, the medium was supplemented with complete DMEM medium containing 20% FBS (6.5 ml/plate) and incubation was continued at 37° C. in 5% CO2. After a total of 24 hours at 37° C. in 5% CO2, the medium was replaced with complete DMEM medium fortified with 10 mM HEPES (10 ml/plate) and the cells were moved to an incubator maintained at 28-30° C. in a humidified atmosphere of 5% CO2 in air. The incubation continued for an additional 24 hours, typically at the lower temperature indicated above. A plasmid encoding Green Fluorescent Protein (i.e., GFP, 4 μg/plate) was used for transient GFP expression in CHO-K1 cells to estimate the transfection yields under the same conditions as used for GPCR-like receptor polynucleotides.
(§2) To assess expression, membranes were prepared from transfected CHO-K1 cells. Transfected cells were washed once with ice-cold Dulbecco's phosphate-buffered saline (i.e., PBS), 5 ml per 10 cm plate, and the cells were scraped into 5 ml of the same buffer. Cell suspensions from multiple plates were combined and centrifuged at 500×g for 10 minutes at 4° C. The cell pellet was reconstituted in ice-cold TEE (25 mM Tris, pH 7.4, 5 mM EGTA, 5 mM EDTA). Convenient aliquots were snap-frozen in liquid nitrogen and stored at −70° C. After thawing, the cells were homogenized and centrifuged at 500×g for 5 minutes at 4° C. to pellet nuclei and unbroken cells. Tile supernatant was centrifuged at 47,000×g for 30 minutes at 4° C. The membrane pellet was washed once with TEE, resuspended in 20 mM HEPES, pH 7.4, 100 mM NaCl, 10 mM MgCl2, 1 mM EDTA (assay buffer), distributed into aliquots of 0.5-1.0 ml, and frozen in liquid nitrogen. Membrane aliquots were stored at −70° C. Membrane protein concentration was determined using the BCA Protein Assay Reagent from Pierce (Rockford, Ill.), with bovine serum albumin (i.e., BSA) as a standard.
Aliquots of cell membranes prepared as described above and stored at −70° C. were thawed, homogenized, and diluted into buffer containing 20 mM HEPES, pH 7.4, 10 mM MgCl2, 1 mM EDTA, and 100 mM NaCl at a concentration of 10-50 μg/ml. Reaction mixtures were prepared in 96-well polypropylene plate, Nunc. Twenty microliters of a 10× putative modulator compound (including but not limited to potential peptide ligands) solution or a water control (20 μl), 18.2 µM GDP (0.11 ml, 10 μM final concentration), and a membrane preparation were mixed and placed on ice. The modulator/ligand-GDP-membrane mixtures were incubated for 20 minutes at room temperature on a shaking platform and then placed on ice.

CEGPCR7 receptor = biological target: T2, CEGPCR7 receptor (Caenorhabditis elegans, UniProt Q18534); experiment: [35S]GTPγS binding assay, membranes of CHO cells transfected with CEGPCR7; type: biochemical, C. elegans
T2 construct: Each of the 22 putative GPCR-like receptor clones appeared to contain a full-length coding region; expressed in transfected cells; host or cells: CHO-K1, transient, pCR3.1 clone, 37 to 28 C temperature shift
T2 sequence (Q18534 1-457): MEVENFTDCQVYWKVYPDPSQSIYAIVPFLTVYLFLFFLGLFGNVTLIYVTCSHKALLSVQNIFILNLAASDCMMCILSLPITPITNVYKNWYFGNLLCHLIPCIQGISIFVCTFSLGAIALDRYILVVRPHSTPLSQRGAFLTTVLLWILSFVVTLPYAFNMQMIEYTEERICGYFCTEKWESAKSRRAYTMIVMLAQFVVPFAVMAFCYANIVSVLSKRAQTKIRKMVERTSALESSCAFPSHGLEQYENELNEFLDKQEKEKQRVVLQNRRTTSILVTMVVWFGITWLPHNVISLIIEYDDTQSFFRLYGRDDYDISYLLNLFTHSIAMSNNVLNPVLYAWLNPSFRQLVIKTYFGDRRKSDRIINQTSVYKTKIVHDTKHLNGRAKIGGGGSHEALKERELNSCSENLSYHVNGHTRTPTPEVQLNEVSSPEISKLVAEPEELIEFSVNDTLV
Method: as §1, §2
Aliquots of cell membranes prepared as described above and stored at −70° C. were thawed, homogenized, and diluted into buffer containing 20 mM HEPES, pH 7.4, 10 mM MgCl2, 1 mM EDTA, and 100 mM NaCl at a concentration of 10-50 μg/ml.

CEGPCR4 = biological target: T3, CEGPCR4 (C. elegans); experiment: competition binding assay, CEGPCR4/CHO membranes; IC50 range printed once for block r19-r25
T3 construct: Expressed in CHO cells; also called CEGPCR4 receptor; CEGPCR4/CHO membranes
T3 chain: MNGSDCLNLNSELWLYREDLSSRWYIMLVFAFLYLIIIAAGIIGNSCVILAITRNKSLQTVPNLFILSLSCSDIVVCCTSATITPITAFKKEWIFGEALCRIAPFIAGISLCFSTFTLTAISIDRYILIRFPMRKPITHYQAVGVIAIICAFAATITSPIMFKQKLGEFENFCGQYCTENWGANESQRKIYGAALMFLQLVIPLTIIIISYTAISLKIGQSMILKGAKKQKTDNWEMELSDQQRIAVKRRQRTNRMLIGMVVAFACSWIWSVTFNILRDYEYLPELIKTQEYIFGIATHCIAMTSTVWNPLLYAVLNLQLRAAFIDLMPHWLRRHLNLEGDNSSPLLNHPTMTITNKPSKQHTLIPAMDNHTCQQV

binding result (CEGPCR4): binds
B1: ILNleRF-NH2 (peptide)
peptide: IL[Nle]RF-NH2
modifications: N-terminus assumed
SMILES: CCCC[C@H](NC(=O)[C@H](CC(C)C)NC(=O)[C@@H](N)[C@@H](C)CC)C(=O)N[C@@H](CCCNC(=N)N)C(=O)N[C@@H](Cc1ccccc1)C(N)=O
notes: synthetic

binding result (CEGPCR4): binds
Molecule: KPNFLRF-NH2 (flp1) [KPNFLRF-NH2]

binding result (CEGPCR4): binds
Molecule: GNSFLRF-NH2 (also called GNSFLRFamide) [GNSFLRF-NH2]

The remaining lines, values behind:

Molecule: KPNFIRF-NH2
activity at single concentration (CEGPCR19.2): peptides active

Molecule: LQPNFLRF-NH2
activity at single concentration (CEGPCR19.2): peptides active

Molecule: CC(C)C[C@H](NC(=O)CNC(=O)[C@@H](N)Cc1ccc(O)c(I)c1)C(=O)NCC(=O)N1CCC[C@H]1C(=O)N[C@@H](CCCNC(=N)N)C(=O)N1CCC[C@H]1C(=O)N[C@@H](CC(C)C)C(=O)N[C@@H](CCCNC(=N)N)C(=O)N[C@@H](Cc1ccccc1)C(N)=O [[I]Y^0-GLGPRPLRF-NH2] (H-[Tyr(3-I)]GLGPRPLRF-NH2)
EC50 (CEGPCR5): 176 to 273 nM
EC50 (CEGPCR5; Table 9, one range for the group of peptides): 80 to 800 nM
less potent than AF9 (CEGPCR5; ratio of potency): about 200 fold
EC50 (CEGPCR7 receptor; EC50, single values): 237 nM
EC50 (CEGPCR7 receptor; EC50 range, Table 7, one range for the group of peptides): 200 to 250 nM

Molecule: SQPNFLRF-NH2
activity at single concentration (CEGPCR19.2): peptides active
